Measured values as given in US20230105209A1 (ACADEMIA SINICA, published 2023).

Target: SARS-CoV-2 spike S2 (SARS-CoV-2, UniProt P0DTC2 686-1213)
Assay: ELISA

B1: m31A7 monoclonal antibody (chimeric IgG1) (antibody, V domains shown)
VH: EVQLQQSGPEMVKPGASVKISCKTSGYTFTEYTIYWVKQSHGKSLEWLGGINPNIGDTTYNQKFKGKATLTVDTSSSTAYMELRSLTSEDSAVYYCAREVYNYSFAYWGQGTLVTVSA
VL: DIVMSQSPSSLAVSVGEKVTMSCKSSQSLLYSSNQKNYLAWYQQKLGQTPKLLIYWASSRESGVPDRFTGSGSGTDFTLTISSVRAEDLAVYYCQQYYRYPLTFGVGTKLELKR
notes: also called m31A7 mAb; m31A7 IgG
- binding result: no binding
